Reference: US20250136718A1 (MABWELL THERAPEUTICS, published 2025)
Like-named read-outs stand apart in the source and are kept apart here.

T1: cynomolgus monkey TMPRSS6 expressed on HEK293T cells, CynoTMPRSS6-(His)6
T1 chain: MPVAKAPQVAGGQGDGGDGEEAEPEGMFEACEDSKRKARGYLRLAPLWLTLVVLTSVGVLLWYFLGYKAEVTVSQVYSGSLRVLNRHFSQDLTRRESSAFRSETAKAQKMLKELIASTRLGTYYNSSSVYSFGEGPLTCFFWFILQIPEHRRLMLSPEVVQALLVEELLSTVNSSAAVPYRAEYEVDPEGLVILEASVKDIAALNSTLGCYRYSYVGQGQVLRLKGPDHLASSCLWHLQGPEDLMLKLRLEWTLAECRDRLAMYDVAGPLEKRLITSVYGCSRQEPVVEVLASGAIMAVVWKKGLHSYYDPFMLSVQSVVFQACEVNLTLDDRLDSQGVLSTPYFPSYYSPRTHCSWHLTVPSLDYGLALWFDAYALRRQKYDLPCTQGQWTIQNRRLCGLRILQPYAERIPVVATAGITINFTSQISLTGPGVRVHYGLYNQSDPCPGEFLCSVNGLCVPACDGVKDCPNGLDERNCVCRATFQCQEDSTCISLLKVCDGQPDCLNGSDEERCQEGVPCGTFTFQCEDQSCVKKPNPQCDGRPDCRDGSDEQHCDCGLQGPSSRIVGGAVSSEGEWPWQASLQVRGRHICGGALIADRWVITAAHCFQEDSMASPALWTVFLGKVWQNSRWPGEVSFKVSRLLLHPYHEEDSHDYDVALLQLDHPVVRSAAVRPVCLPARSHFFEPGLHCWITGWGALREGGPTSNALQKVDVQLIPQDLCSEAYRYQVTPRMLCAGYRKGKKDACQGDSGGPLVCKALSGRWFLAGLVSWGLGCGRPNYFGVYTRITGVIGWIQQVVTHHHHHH

T2: human TMPRSS6 (matriptase-2) expressed on HEK293T cells, huTMPRSS6-(His)6 (UniProt Q8IU80 10-811)
T2 chain: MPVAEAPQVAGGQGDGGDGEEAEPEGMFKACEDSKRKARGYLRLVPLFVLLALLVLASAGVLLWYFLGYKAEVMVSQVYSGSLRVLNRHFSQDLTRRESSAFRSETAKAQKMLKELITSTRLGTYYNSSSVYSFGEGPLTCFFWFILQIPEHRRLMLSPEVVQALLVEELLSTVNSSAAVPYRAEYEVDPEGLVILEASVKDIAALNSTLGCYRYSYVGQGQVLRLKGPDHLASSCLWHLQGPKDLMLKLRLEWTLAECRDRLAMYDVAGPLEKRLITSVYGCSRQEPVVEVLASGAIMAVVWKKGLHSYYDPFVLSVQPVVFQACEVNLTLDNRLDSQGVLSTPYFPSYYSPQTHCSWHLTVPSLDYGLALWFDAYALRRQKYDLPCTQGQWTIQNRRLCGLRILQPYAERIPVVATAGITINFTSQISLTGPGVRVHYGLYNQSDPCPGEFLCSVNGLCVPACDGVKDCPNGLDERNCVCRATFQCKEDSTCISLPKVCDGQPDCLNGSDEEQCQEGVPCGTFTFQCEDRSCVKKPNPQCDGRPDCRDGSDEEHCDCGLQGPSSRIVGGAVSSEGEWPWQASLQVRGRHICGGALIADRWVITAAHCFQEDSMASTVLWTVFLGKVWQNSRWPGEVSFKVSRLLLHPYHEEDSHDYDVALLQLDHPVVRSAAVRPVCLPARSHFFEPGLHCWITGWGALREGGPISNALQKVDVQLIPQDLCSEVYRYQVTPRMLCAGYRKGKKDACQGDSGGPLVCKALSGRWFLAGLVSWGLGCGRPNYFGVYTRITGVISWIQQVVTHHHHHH

B1: humanized anti-TMPRSS6 antibody variant hzMWTx-003 Var (antibody, human IgG1, kappa, L234A L235A, V domains shown)
VH: QVQLVQSGAEVKKPGASVKVSCKASGFNIEDYYMHWVRQAPGQRLEWMGRIDPEDAETTYSPKFQGRVTIIPDTSANTAYMELSSLRSEDTAVYYCARSIYLDPMDYWGQGTLVTVSS
VL: DIQMTQSPKSLSASVGDRVTITCRASQDVTTALAWYQQKPGQSPKLLIYWATTRHSGVPSRFSGSGSGTDFTLTISSLQPEDFATYYCQQHYSTPYTFGQGTKLEIKR
notes: Human IgG1 / kappa
B2: MWTx-002 anti-TMPRSS6 monoclonal antibody (antibody, mouse IgG2b, kappa, V domains shown)
VH: EVQLQQSGAELVKPGASVKLSCTASGFNIKDYYIHWVKERTEQGLEWFGRIDPEDGESEYAPKFQGKATLTADTSSNTAYLQLSSLTSEDTAVYYCTRGDSMMVTYFDYWGQGTTLTVSS
VL: DIVMTQSHKFMSTSVGDRVSITCKASQDVSTAVAWYQQKPGQSPKLLIYWAFTRHTGVPDRFTSTGSGTDYALTISSVQAEDLALYYCQQHYRSPWTFGGGTKLEIKR
notes: Mouse monoclonal antibody from hybridoma (ATCC PTA-126760)
B3: MWTx-003 anti-TMPRSS6 monoclonal antibody (antibody, mouse IgG2b, kappa, V domains shown)
VH: EVQLQQSGAELVKPGASVKLSCTASGFNIEDYYIHWVKERTEQGLEWIGRIDPEDGETTYAPQFQGKATIIPDTSSNTAYMQLSSLTSEDAAVYYCARSIYLDPMDYWGQGTSVTVSS
VL: DIVMTQSHKFMSTSVGDRVSITCKASQDVTTAVAWYQQKPGQSPKILIYWATTRHTGVPDRFTGSISGTTYILTISSVQAEDLALYYCQQHYSTPYTFGGGTKLEIKR
notes: Mouse monoclonal antibody from hybridoma (ATCC PTA-126761); The recombinant version r4K12B has the same HC and LC; also called r4K12B; recombinant MWTx-003
B4: MWTx-001 anti-TMPRSS6 monoclonal antibody (antibody, mouse IgG2a, kappa, V domains shown)
VH: QVQLQQPGAELAKPGASVKMSCKASGYTFTSYWITWVKQRPGQDLEWIGNIYPGSGSTYYNEKFKSKATLTVDTSSRTAYMQLSSLTSADSAVYYCAPYDSDYAMDYWGQGTSVTVSS
VL: DIKMTQSPSSMYASLGERVTITCKASQDINNYLSWFQQKPGKSPKTLIYRANRLVDGVPSRVSGSGSGQDYSLTISSLEYEDVGIYFCLQYDEFPLTFGAGTKLELKR
notes: Mouse monoclonal antibody from hybridoma (ATCC PTA-126759)
B5: humanized anti-TMPRSS6 antibody variant hzMWTx-001 Var (antibody, human IgG1, kappa, N297A, V domains shown)
VH: EVQLVQSGAEVKKPGASVKVSCKASGYTFTSYWITWVRQAPGQRLEWIGNIYPGSGSTYYNEKFKSKATITRDTSSRTAYMELSSLRSEDTAVYYCAPYDADYAMDYWGQGTLVTVSS
VL: DIQMTQSPSSLSASVGDRVTITCKASQDISNYLSWFQQKPGKAPKLLIYRANRLVEGVPSRFSGSGSGTDFTLTISSLQPEDFATYFCLQYDEFPLTFGGGTKVEIKR
notes: Human IgG1 / kappa
B6: humanized anti-TMPRSS6 antibody variant hzMWTx-002 Var (antibody, human IgG1, kappa, N297A, V domains shown)
VH: EVQLVQSGAEVKKPGASVKVSCKASGFNIKDYYIHWVRQATGQGLEWMGRIDPEDAESEYAPKFQGRVTITADTSTDTAYMELSSLRSEDTAVYYCTRGDSMMVTYFDYWGQGTLVTVSS
VL: DIQMTQSPSSLSASVGDRVTITCKASQDVSTAVAWYQQKPGKAPKLLIYWAFTRHTGVPSRFSGSGSGTDYALTISSLQPEDFATYYCQQHYRSPWTFGGGTKVEIKR
notes: Human IgG1 / kappa

Columns and labels:
[1] = target: T1, cynomolgus monkey TMPRSS6 expressed on …; experiment: cell surface ELISA
[2] = target: T1, cynomolgus monkey TMPRSS6 expressed on …; experiment: cell surface ELISA
[3] = target: T2, human TMPRSS6 (matriptase-2) expressed …; experiment: FACS
[4] = target: T2, human TMPRSS6 (matriptase-2) expressed …; experiment: cell surface ELISA

EC50 [1] [µg/mL] | EC50 [2] [µg/mL] | EC50 [3] [µg/mL] | EC50 [4] [µg/mL] | Binder
0.03 |  |  |  | B1
 | 0.06 | 0.2 | 0.04 | B2
 | 0.09 | 0.2 | 0.05 | B3
 | 0.1 | 1 | 0.2 | B4
0.003 |  |  |  | B5
0.06 |  |  |  | B6
